Assay results reported in patent US11319530B2, “Host cells and systems for membrane protein expression” (President and Fellows of Harvard College, priority 2015, dated 2022).

B5: FLAG-tagged E. coli DsbAC33A (pFH442: pFH441 C33A-FLAG) (enzyme, UniProt P0AEG4 20-208, looked up)
chain: AQYEDGKQYTTLEKPVAGAPQVLEFFSFFCPHAYQFEEVLHISDNVKKKLPEGVKMTKYHVNFMGGDLGKDLTQAWAVAMALGVEDKVTVPLFEGVQKTQTIRSASDIRDVFINAGIKGEEYDAAWNSFVVKSLVAQQEKAAADVQLRGVPAMFVNGKYQLNPQGMDTSNMDVFVQQYADTVKYLSEKK
notes: by common usage C33 of DsbA is counted on the mature (periplasmic) protein, not on the precursor; Expressed from pBAD43 in E. coli; also called C33A mutant of DsbA; not shown: FLAG tag

Columns and labels:
[1] = target: T1, rat VKORc1ΔAAR expressed in FSH231 (Rattus norvegicus, UniProt Q6TEK4, DEL31-33); experiment: blue/white agar assay in 384 well plates using the β-Gal^dbs reporter (dose-dependent inhibition of VKORc1); assay type: cell-based; conditions: FIG. 4 Panel A; for dose-dependent inhibition of VKORc1: rat VKORc1ΔAAR expressed in E. coli FSH231 (ΔdsbB, yidCT362I, hsIVC160Y)
T1 construct: expressed in transfected cells; host or cells: E. coli FSH231 (ΔdsbB, yidCT362I, hslVC160Y, malF-lacZ102 reporter), pTrc99a plasmid
T1 sequence (Q6TEK4 with tags, fused parts or gaps DEL31-33): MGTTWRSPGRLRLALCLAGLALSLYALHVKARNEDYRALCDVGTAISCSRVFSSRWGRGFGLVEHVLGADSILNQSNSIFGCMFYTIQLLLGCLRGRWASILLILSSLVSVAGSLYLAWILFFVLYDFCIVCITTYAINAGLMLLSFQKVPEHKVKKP

[2] = target: B5; experiment: non-reducing SDS-PAGE of TCA-precipitated proteins of FSH231, immunoblot with anti-T7 or anti-FLAG; mixed disulfide
[3] = target: B5; experiment: non-reducing SDS-PAGE immunoblot; mixed disulfide
[4] = target: B5; experiment: non-reducing SDS-PAGE of TCA-precipitated proteins of FSH231, immunoblot with anti-T7 or anti-FLAG
[5] = target: the molecule itself; experiment: immunoblot, FIG. 4 Panel C
VKORc1ΔAAR, G60D = target: T2, VKORc1ΔAAR, G60D (Rattus norvegicus, UniProt Q6TEK4, C16A/C85A/C96A/DEL31-33/G60D); experiment: motility assay, low agar motility plates of FSH231; assay type: cell-based; conditions: FSH231 co-expressing VKORc1ΔAAR, G60D and DsbAC33A, in the presence of DsbAwt; FIG. 4 Panel B
T2 construct: expressed in transfected cells; host or cells: E. coli FSH231 (ΔdsbB, yidCT362I, hslVC160Y), pTrc99a plasmid, co-transformed with pBAD43 (empty, or carrying DsbA or DsbAC33A)
T2 sequence (Q6TEK4 with tags, fused parts or gaps C16A/DEL31-33/G60D/C85A/C96A): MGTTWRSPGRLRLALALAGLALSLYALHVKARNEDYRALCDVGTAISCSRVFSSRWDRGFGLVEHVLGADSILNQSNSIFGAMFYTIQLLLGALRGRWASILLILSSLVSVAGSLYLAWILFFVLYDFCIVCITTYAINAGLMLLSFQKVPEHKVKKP
Experimental: Bacterial motility was assayed by stabbing a colony into 0.3% minimal medium Agar plates containing M63 salts, 0.2% Glucose, IPTG, and carbenicillin. Motility was examined after two days of growth at 30 C. When using arabinose to induce expression from pBAD promoter, 0.5% glycerol was used instead of glucose in addition to 0.1% NZ to enhance motility.
As expected, the function of VKORc1ΔAAR in disulfide bond formation was dependent on E. coli DsbA, the presumed substrate of the now functional VKORc1ΔAAR. To determine whether VKORc1ΔAAR interacts directly with DsbA in vivo, we used a C33A mutant of DsbA which forms a detectable stable complex with DsbB and asked whether a similar scenario occurs with VKORc1ΔAAR (23). We used the highly expressed VKORc1ΔAAR, G60D lacking all nonessential cysteines expressed in a ΔdsbB, yidCT362I, hsIVC160Y strain (FSH231). […] When TCA-precipitated proteins of FSH231 strain expressing both T7-tagged VKORc1ΔAAR, G60D and FLAG-tagged DsbAC33A are run on a non-reducing SDS-PAGE and probed by either anti-T7 or FLAG tags antibodies, a VKORc1-DsbA complex band around 40 kDa can be seen (FIG. 4., Panel C) that is DTT-sensitive. The complex formation is also observed when using VKORc1 lacking C51, but disappears in the absence of C46 or C132, unless the removal of C132 is accompanied by the removal of C51 (FIG. 4., Panel C). […]

Q: For `CC(=O)CC(c1ccccc1)c1c(O)c2ccccc2oc1=O` (stereo not drawn) [warfarin], which “dose-dependent inhibition of VKORc1” value [1] is on record?
A: inhibited

Q: Which “dose-dependent inhibition of VKORc1” value [1] does the source give for `O=C1c2ccccc2C(=O)C1c1ccc(Br)cc1` [bromindione] here?
A: inhibited

Q: And the “inhibitory effect compared with warfarin” value ([1]; rat VKORc1ΔAAR expressed in E. coli FSH231)?
A: stronger inhibitory effects than warfarin

B1: T7-tagged rat VKORc1ΔAAR, G60D lacking all nonessential cysteines (pFH436: rat VKORc1 C16A ΔA31AR G60D C85A C96A-linker-T7 tag) (enzyme)
chain: MGTTWRSPGRLRLALALAGLALSLYALHVKARNEDYRALCDVGTAISCSRVFSSRWDRGFGLVEHVLGADSILNQSNSIFGAMFYTIQLLLGALRGRWASILLILSSLVSVAGSLYLAWILFFVLYDFCIVCITTYAINAGLMLLSFQKVPEHKVKKPGTGGGSGGGSGS
notes: Expressed in E. coli FSH231 (ΔdsbB, yidCT362I, hslVC160Y); not shown: C-terminal T7 tag
Q: Does B1 bind [2]?
A: binds

B2: rat VKORc1 C16A C51A ΔA31AR G60D C85A C96A C132A-linker-T7 tag (pFH440) (enzyme)
chain: MGTTWRSPGRLRLALALAGLALSLYALHVKARNEDYRALCDVGTAISASRVFSSRWDRGFGLVEHVLGADSILNQSNSIFGAMFYTIQLLLGALRGRWASILLILSSLVSVAGSLYLAWILFFVLYDFAIVCITTYAINAGLMLLSFQKVPEHKVKKPGTGGGSGGGSGS
notes: also called VKORc1 with removal of C132 accompanied by the removal of C51; not shown: C-terminal T7 tag
Q: Does B2 bind [3]?
A: binds

B3: rat VKORc1 C16A C51A ΔA31AR G60D C85A C96A-linker-T7 tag (pFH438) (enzyme)
chain: MGTTWRSPGRLRLALALAGLALSLYALHVKARNEDYRALCDVGTAISASRVFSSRWDRGFGLVEHVLGADSILNQSNSIFGAMFYTIQLLLGALRGRWASILLILSSLVSVAGSLYLAWILFFVLYDFCIVCITTYAINAGLMLLSFQKVPEHKVKKPGTGGGSGGGSGS
notes: also called VKORc1 lacking C51; not shown: C-terminal T7 tag
Q: Does B3 bind [3]?
A: binds

B4: rat VKORc1 C16A ΔA31AR G60D C85A C96A C132A-linker-T7 tag (pFH439) (enzyme)
chain: MGTTWRSPGRLRLALALAGLALSLYALHVKARNEDYRALCDVGTAISCSRVFSSRWDRGFGLVEHVLGADSILNQSNSIFGAMFYTIQLLLGALRGRWASILLILSSLVSVAGSLYLAWILFFVLYDFAIVCITTYAINAGLMLLSFQKVPEHKVKKPGTGGGSGGGSGS
notes: also called VKORc1 in the absence of C132; not shown: C-terminal T7 tag
Q: Does B4 bind [4]?
A: no binding

Q: Does B5 bind [5]?
A: binds

B6: DsbAC33A: C33A mutant of E. coli DsbA, expressed from pBAD43; forms mixed disulfide with VKORc1 (protein)
chain: AQYEDGKQYTTLEKPVAGAPQVLEFFSFFCPHAYQFEEVLHISDNVKKKLPEGVKMTKYHVNFMGGDLGKDLTQAWAVAMALGVEDKVTVPLFEGVQKTQTIRSASDIRDVFINAGIKGEEYDAAWNSFVVKSLVAQQEKAAADVQLRGVPAMFVNGKYQLNPQGMDTSNMDVFVQQYADTVKYLSEKK
modifications: left off: small tags and cut ends
Q: How did the “inhibition of VKORc1 function (motility)” value (VKORc1ΔAAR, G60D) turn out when B6 was run?
A: inhibits the function of VKORc1
